One molecule from patent publication US20140128569A1 (PANASONIC, published 2014) can be followed below.

The target in this experiment is T1, polypeptide consisting of the amino acid sequence represented by SEQ ID NO: 01, contained in troponin I … (human).
T1 peptide: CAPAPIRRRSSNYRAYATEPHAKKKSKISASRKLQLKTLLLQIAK
Briefly: phage ELISA; average absorbance relative to example 2-1 (no heat); told of the conditions <=70 C and <=5 min, <=60 C and <=10 min, <=50 C and <=20 min, <=37 C and <=60 min. The method, then:
Pursuant to the step (a-8), the ELISA plate was prepared.
A phage binding ratio was calculated from Table 10 on the basis of the following formula (I): […]
(An ELISA detects its analyte on a solid surface through an enzyme-linked reagent.)

B1: A2 antibody-displayed phage (scFv)
scFv: DVVLTQSPLTLSVTIGQPASISCKSSQSLLDSDGKTYLNWLLQRPGQSPKRLIYLVSKLDSGVPDRFTGSGSGTDFTLKISRVEAEDLGVYYCWQGTHFPLTFGAGTKLEIKRGGGGSGGGGSGGGGSQLQLQQSGAELVRSGASVKLSCTASGFNIKDYYMNWVKQRPEQGLEWIGWIDPANGDTAYAPRFQVKATMTADKSSNTAYLQLSSLTSEDTAVYYCNADLPMDQWGQGTSVTVSS
notes: 67, 68, 69 its parts; they must be translated; also called A2 antibody fragment; A2 scFv antibody fragment
Regarding B1, the phage binding ratio was 40%.
